Laboratory results reported in patent US6368619B1, “Hydrophobic preparations of hydrophilic species and process for their preparation” (Provalis UK Limited, priority 1993, dated 2002).
Values belong to the substance of their own block, whether it stands above or below them.

What was measured:
Format in all cases: physicochemical
[1] = Optical density at 600 nm of melanin solutions in oil (M818) and water; settings: for Measurement at 600 nm, Water: Example 26: melanin alone in distilled water
Procedure: 10 mg of melanin were added to 1 ml of distilled water, and dissolved after raising pH with ammonium hydroxide solution. 50 ul of this concentrated solution was diluted 20-fold by addition to 950 ul of distilled water. To two rows of seven wells of a microplate 0, 12.5, 25, 37.5, and 50 ul of the dilute solution were added, and 12.5 and 25 ul of the concentrated solution. To each well of one row was added 100 ul of a soya phosphatidyl choline dispersion prepared by sonication for ten minutes with cooling at a concentration of 100 mg/ml. The other row was left untouched, the plate was mixed well, frozen at −20° C. and lyophilised overnight. The following day, 100 ul of M818 were added to wells in the row containing melanin/lipid complex, and 100 ul of distilled water was added to the wells in the row containing melanin alone. […] It will be seen from the table and accompanying graph that Beer-Lambert's law is obeyed over this concentration range (ie the response curve is linear), and that the behaviour of melanin is identical for both oil and aqueous solutions.

[2] = Centrifugation of melanin dispersions in M818
[3] = Dispersion of hydrophilic species/amphiphile array in hydrophobic solvent: visual optical clarity
[4] = Turbidity of oil preparations by optical density / absorbance (plate reader); settings: Example 9: egg lysophosphatidyl choline, oleic acid, 4.6 mg insulin/g
Procedure: It is very much preferred that the preparations of the invention are optically clear and this can be monitored by measuring turbidity at visible wave lengths and, in some cases, by checking for sedimentation over a period of time. […]
Aprotinin was dissolved in distilled water at a concentration of 10 mg/ml. Hexadecyl phosphocholine (HDPoC) was dissolved in distilled water at a concentration of 100 mg/ml. To aliquots of 100 μl of aprotinin solution, volumes of HDPOC were added ranging from 0 through to 10, 20, 30, 40 to 50 μl. The mixtures were frozen at −20° C. and lyophilised overnight. The following day 100 μl of oleic acid was added to each sample and shaken for one hour at room temperature on an orbital shaker.
Octyl glucoside was dissolved in distilled water and dispensed into wells of a microplate to give the following amounts of amphiphile per well: −0, 0.5, 1.0, 1.5, 2.0, 2.5, 5, 7.5 and 10 mg. Aprotinin was dissolved in distilled water at a concentration of 5 mg/ml, and 100 μl was dispensed into each well above, containing 0.5 mg of protein. The plate was mixed well, frozen at −20° C. and lyophilised overnight. The following day, […] of oleic acid was added to each well. The plate was shaken at room temperature, and optical density measurements at 550 nm taken at intervals with a plate reader. A low absorbance value indicates a low level of scattering, and corresponds to effective dispersion of protein in oil.
The results, expressed in terms of optical density as a function of octyl glucoside concentration (at constant protein concentration) at different times after addition of oleic acid are given in the table and accompanying graph.

[5] = Stability of oil preparations on storage, standing or freeze-thawing (appearance)
Procedure: Egg PC SUVs at a concentration of 100 mg PC/ml were prepared as in Example 1. An insulin solution at 10 mg/ml was made by preparing an aqueous suspension at a slightly higher concentration, adding glacial acetic acid at a rate of 20 mg/g of insulin used, and then adding sufficient water to give the desired insulin concentration. After mixing and standing for 15 minutes, a clear solution was formed. To 1.25 ml of SUVs in a test-tube, were added 1.25 ml of insulin solution, and the mixture shell-frozen and freeze-dried overnight. The following day, 0.252 g of oleic acid was added and the tube vortexed to completely “wet” the lyophilate.
The HRPO solution was divided into two -equal portions, and one portion was put through five freeze-thaw cycles by cooling repeatedly to +4° C., solidifying the oleic acid each time, before bringing it back to room temperature.
The same procedure employed as described in Example 19, except that bovine brain sphingomyelin was used instead of phosphatidyl choline, resulting in proportions by weight of insulin/sphingomyelin/oleic acid of 5/50/200.

- Measurement at 600 nm, Water ([1]; Concn 0.0625 mg/ml): 0.072
- Measurement at 600 nm, Water ([1]; Concn 0.125 mg/ml): 0.159
- Measurement at 600 nm, Water ([1]; Concn 0.187 mg/ml): 0.23
- Measurement at 600 nm, Water ([1]; Concn 0.25 mg/ml): 0.333
- Measurement at 600 nm, Water ([1]; Concn 1.25 mg/ml): 1.259
- Measurement at 600 nm, Water ([1]; Concn 2.5 mg/ml): 2.653
- Measurement at 600 nm, Miglyol ([1]; Example 26: melanin/soya PC complex in M818, Concn 0.0625 mg/ml): 0.078
- Measurement at 600 nm, Miglyol ([1]; Example 26: melanin/soya PC complex in M818, Concn 0.125 mg/ml): 0.157
- Measurement at 600 nm, Miglyol ([1]; Example 26: melanin/soya PC complex in M818, Concn 0.187 mg/ml): 0.23
- Measurement at 600 nm, Miglyol ([1]; Example 26: melanin/soya PC complex in M818, Concn 0.25 mg/ml): 0.306
- Measurement at 600 nm, Miglyol ([1]; Example 26: melanin/soya PC complex in M818, Concn 1.25 mg/ml): 1.565
- Measurement at 600 nm, Miglyol ([1]; Example 26: melanin/soya PC complex in M818, Concn 2.5 mg/ml): 2.857
Substance: melanin
- behaviour of dispersion on centrifugation ([2]; Example 26: dispersed in M818 by sonication in the absence of phosphatidyl choline): black dispersion, which sedimented out after centrifugation giving a clear supernatant
- behaviour of dispersion on centrifugation ([2]; Example 26: melanin/lipid complex dispersed in M818): No such changes were observed after centrifugation

Substance: insulin
- appearance of preparation ([3]; Example 5: egg PC SUVs, 0.252 g oleic acid, left overnight): yellow, optically clear dispersion displaying strong opalescence
- appearance of dispersion ([3]; Example 6: 5 mg soy PC, 0.47 mg protein, 100 mg diolein, initially granular): became clear after 2 hours
- appearance of dispersion ([3]; Example 8: DPPC SUVs 15 mg, 1.4 mg protein, 300 mg oleic acid): clear
- appearance of dispersion ([3]; Example 9: egg lysophosphatidyl choline micelles, 0.3 g oleic acid): clear dispersion
- insulin content of clear dispersion ([3]; Example 9: egg lysophosphatidyl choline, oleic acid): 4.6 mg insulin/g of oleic acid
- appearance of dispersion ([3]; Example 10: soy PC SUVs, 300 mg Miglyol 810, following day): slightly opalescent
- appearance of dispersion ([3]; Example 10: soy PC SUVs, 300 mg Miglyol 812, following day): completely clear
- appearance of dispersion ([3]; Example 10: soy PC SUVs, 300 mg Miglyol 818, following day): completely clear
- appearance of dispersion ([3]; Example 10: soy PC SUVs, 300 mg Miglyol 829, following day): turbid gel
- appearance of dispersion ([3]; Example 10: soy PC SUVs, 300 mg Miglyol 840, following day): completely clear
- appearance of solution ([3]; Example 20: bovine brain sphingomyelin, insulin/sphingomyelin/oleic acid 5/50/200, one hour mixing): completely clear solution
- appearance of dispersions ([3]; Example 33: soy PC SUV, melts of tripalmitin, triheptadecanoin or tristearin with 2% oleic acid, 78 C, 1 to 2 hours): almost clear dispersions
- appearance of dispersion ([3]; Example 36: AOT amphiphile, 200 mg octanol, standing overnight): clear after standing overnight
- absorbance at 600 nm [4]: 0.023
- change in appearance (eg sedimentation) on storage ([5]; Example 5: 7 weeks storage under nitrogen in a sealed tube at room temperature): no apparent change in the appearance
- appearance on standing ([5]; Example 20: sphingomyelin/oleic acid, room temperature for several days): solid opaque gel
- appearance of gel on warming ([5]; Example 20: sphingomyelin/oleic acid, warming to 37° C.): clear solution again
